According to paper doi:10.1101/151043 (bioRxiv, 2017):

Assays:
mouse serum albumin = mouse serum albumin (Mus musculus, UniProt P07724, EZ-Link NHS-PEG4-Biotin labelled); assay: SPR
[1] = target: recombinant human serum albumin from S. cerevisiae, biotin labelled (Homo sapiens, UniProt P02768, EZ-Link NHS-PEG4-Biotin labelled); assay: SPR
Sequence of recombinant human serum albumin from S. cerevisiae, biotin labelled (P02768 25-609): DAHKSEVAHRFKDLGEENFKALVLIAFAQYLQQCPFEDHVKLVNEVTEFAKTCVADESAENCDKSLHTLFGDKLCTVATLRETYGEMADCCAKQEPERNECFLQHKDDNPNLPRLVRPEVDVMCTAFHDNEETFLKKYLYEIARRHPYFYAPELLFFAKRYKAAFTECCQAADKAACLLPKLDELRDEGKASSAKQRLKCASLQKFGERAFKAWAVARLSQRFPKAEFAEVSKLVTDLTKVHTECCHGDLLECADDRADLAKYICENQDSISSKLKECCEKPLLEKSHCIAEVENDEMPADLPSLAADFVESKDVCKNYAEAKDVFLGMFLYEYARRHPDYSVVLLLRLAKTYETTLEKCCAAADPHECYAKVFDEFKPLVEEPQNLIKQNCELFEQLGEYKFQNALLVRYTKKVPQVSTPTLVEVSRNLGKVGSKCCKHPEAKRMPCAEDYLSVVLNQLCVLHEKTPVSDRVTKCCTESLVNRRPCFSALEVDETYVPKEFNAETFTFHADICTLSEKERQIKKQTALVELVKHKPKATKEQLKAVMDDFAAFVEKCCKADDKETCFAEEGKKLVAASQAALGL

Sequence of mouse serum albumin (P07724 25-608): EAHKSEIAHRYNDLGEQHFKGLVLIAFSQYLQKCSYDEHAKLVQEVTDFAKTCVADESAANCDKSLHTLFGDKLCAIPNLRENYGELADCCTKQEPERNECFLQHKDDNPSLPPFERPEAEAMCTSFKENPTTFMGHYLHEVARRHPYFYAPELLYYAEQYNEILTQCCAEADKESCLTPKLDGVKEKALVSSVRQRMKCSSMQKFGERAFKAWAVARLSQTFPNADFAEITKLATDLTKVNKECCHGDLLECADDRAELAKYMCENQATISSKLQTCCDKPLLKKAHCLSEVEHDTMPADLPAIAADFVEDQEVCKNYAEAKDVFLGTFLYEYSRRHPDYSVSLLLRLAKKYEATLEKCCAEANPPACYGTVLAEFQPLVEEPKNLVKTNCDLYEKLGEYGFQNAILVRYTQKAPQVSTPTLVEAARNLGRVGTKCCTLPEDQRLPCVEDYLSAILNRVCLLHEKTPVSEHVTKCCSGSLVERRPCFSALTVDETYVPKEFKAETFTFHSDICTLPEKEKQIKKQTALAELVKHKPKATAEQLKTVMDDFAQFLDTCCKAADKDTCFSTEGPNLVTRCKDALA

binding result (mouse serum albumin): no binding | Kd [1]: 430 nM
B1: Nb.b201 (VHH)
VHH: QVQLQESGGGLVQAGGSLRLSCAASGYISDAYYMGWYRQAPGKEREFVATITHGTNTYYADSVKGRFTISRDNAKNTVYLQMNSLKPEDTAVYYCAVLETRSYSFRYWGQGTQVTVSS
